Measured values published in patent US20250154277A1 (CONCEPT TO MEDICINE BIOTECH, published 2025).
“And” between values parts separate entries of the source, which are not always exact repeats. Equal entries are not always repeated. Where two headings read alike, the source gives them in different places.

T1: human 5T4-His protein (human, UniProt Q13641 32-355)
T1 construct: also called recombinant 5T4 protein (human 5T4-his tag); human 5T4 protein; not shown: His tag
T1 sequence (looked up): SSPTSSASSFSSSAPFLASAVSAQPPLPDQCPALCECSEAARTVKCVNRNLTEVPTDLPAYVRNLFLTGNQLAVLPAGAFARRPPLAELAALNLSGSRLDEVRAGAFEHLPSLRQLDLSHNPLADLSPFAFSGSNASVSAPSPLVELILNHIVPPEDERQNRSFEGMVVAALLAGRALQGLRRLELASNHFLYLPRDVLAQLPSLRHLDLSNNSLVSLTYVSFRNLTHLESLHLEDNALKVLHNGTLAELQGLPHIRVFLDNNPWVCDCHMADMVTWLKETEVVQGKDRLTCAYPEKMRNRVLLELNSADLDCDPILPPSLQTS

T2: cynomolgus 5T4 protein (cynomolgus monkey, UniProt Q4R8Y9 35-355, limits assumed)
T2 construct: Coated protein in ELISA; the screening step names a cyno 5T4-His protein; also called cyno 5T4; recombinant cyno 5T4-His protein
T2 sequence (looked up): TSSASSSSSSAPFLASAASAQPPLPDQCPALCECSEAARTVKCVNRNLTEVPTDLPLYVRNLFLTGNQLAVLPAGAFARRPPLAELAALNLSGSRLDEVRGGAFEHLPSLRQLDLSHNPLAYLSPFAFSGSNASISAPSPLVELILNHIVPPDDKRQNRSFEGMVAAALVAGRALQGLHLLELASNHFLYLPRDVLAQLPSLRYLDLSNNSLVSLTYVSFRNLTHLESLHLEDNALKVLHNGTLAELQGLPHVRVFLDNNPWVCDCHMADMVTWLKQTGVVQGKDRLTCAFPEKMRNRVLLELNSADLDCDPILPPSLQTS

T3: human 5T4 expressed on cells (human, UniProt Q13641 32-420)
T3 construct: whole, on cells; also called CHOK1-hu5T4; CHO-K1-expressing human 5T4
T3 sequence (looked up): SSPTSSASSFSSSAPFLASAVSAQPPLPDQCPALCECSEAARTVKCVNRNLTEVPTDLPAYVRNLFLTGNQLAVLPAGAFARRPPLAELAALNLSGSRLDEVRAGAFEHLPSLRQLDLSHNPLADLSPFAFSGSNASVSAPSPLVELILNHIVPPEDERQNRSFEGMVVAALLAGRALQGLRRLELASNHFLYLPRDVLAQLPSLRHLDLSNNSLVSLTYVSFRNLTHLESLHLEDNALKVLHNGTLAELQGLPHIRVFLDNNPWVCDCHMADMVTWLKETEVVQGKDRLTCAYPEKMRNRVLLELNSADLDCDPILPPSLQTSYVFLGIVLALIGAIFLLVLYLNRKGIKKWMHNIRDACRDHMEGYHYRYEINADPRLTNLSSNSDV

B1: 14G12 chimeric antibody (antibody, V domains shown)
VH: EVQLQQSGPELVKPGASVKISCKASGYAFSSSWMNWVKQRPGKGLEWIGRIYREDGHTNYNGKFKGKATLTADKSSTTAYMQLTSLTSEDSAVYFCANGGAMDYWGQGTSVTVSS
VL: DIQMTQSTSSLSASLGDRVTISCRASQDISNYLNWYQQKPDGTVKLLIYYTSRLHSGVPSRFSGSGSGTDYSLTISNLEQEDIATYFCQQDNTLPWTFGGGTKLEIK
notes: chimeric mAb
B2: Hu286B4-10 (antibody, V domains shown)
VH: EVQLQESGPGLVKPSDTLSLTCAVSGYSISNNYYWNWIRQPPGKGLEWIGYITYDGSNNYNPSLKNRITMSRDTSKNQFSLKLSSVTAVDTAVYYCARGGGQLRFDYWGQGTTVTVSS
VL: SIVMTQSPSSLSASVGDRVTITCKASQSVSNEVTWYQQKPGKSPKMLIYYASNRYTGVPDRFSGSGYGTDFTFTISSLQPEDIATYFCQQDYSSPWTFGGGTKVEIK
notes: humanized
B3: 24F10 chimeric antibody (antibody, V domains shown)
VH: EVQLVESGGGLVKPGGSLKLSCAASGFTFSDYGMHWVRQAPEKGLEWVAYISSGTSTIYYTDTVKGRFTISRDNAKNTLFLQMTSLRSEDTAMYYCARGGDGYYRSTMDYWGQGISVTVSS
VL: DIVLTQSPASLAVSLGQRATISCRASQSVSSSSYSYMHWYQQKPGQPPKLLIKSASNLASGVPARFSGSGSGTDFTLNIHPVEEEDSATYYCQHSWEVPRTFGGGTKLEIK
notes: chimeric mAb
B4: 267B5 chimeric antibody (antibody, V domains shown)
VH: DVQFQESGPGLVKPSQSLSLTCSVTGYSITSSYYWNWIRQFPGDKLEWMGYISYDGSNNYNPSLKNRISITRDTSKKQFFLKLNSVTTEDTATYYCARSWDGGYAMDNWGQGTSVTVSS
VL: SIVMTQTPKFLLVSAGDRVTITCKASQSVSNDVAWYQQKPGQSPKLLIYFASNRYTGVPDRFTGSGYGTVFTFTISTVQADDLAVYFCQQDYTSPWTFGGGTRLEIK
notes: chimeric mAb
B5: 257F1 chimeric antibody (antibody, V domains shown)
VH: QVLLQQSGAEVARPGASVKLSCKASGYTFTSYGLNWLRQRTGQGLEWIGEIYPRSENTHYNEKFKGKATLTADKSSSTAYMELRSLTSEDSAVYFCARGDWDFDHWGQGTTLTVSS
VL: EILLTQSPAIIPASPGEKVTITCSASSSVSYMNWYQQKPGSSPKIWIYGISNLASGVPARFSGSGSGTFFSFTINSMEAEDVATYYCQQRSSYPRTFGGGTKLEIK
notes: chimeric mAb
B6: 393E9 chimeric antibody (antibody, V domains shown)
VH: EVKLVESGGGLVQPGGSLSLSCAASGFTFTDYYMSWVRQPPGKALEWLGFIRNKGNGYTTENSASVKGRFTISRDNSQSILYLQMNALRAEDSATYYCARYRGNPHYAMDYWGQGTSVTVSS
VL: DIVLTQFPASLAVSLGQRATISCRASESVEFYGTSFLQWYQQKPGQPPKLLIYGASNVESGVPARFSGSGSGTDFSLSIHPVEEDDIAMYFCQQSRKVPSTFGGGTKLEIK
notes: chimeric mAb

Experiments:
[1] = target: T1, human 5T4-His protein; assay: ELISA, coated antigen
[2] = target: T2, cynomolgus 5T4 protein; assay: ELISA, coated antigen
[3] = target: T1, human 5T4-His protein; assay: SPR Biacore, Protein A capture
In short: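 Antibodies captured on a Protein A chip on Biacore T200; serial dilutions of His-tagged human 5T4 injected 2-3 min at 30 μl/min, dissociation 360-1000 s.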

[4] = target: T1, human 5T4-His protein; assay: SPR Biacore, Protein A capture; remark: listed apart in the source
In short: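 Humanized 14G12 antibodies captured on a Protein A chip; serial dilutions of human 5T4-His injected for 120 s-180 s at 30 μl/min, with dissociation over 360 s-1000 s on a Biacore T200.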

[5] = target: T1, human 5T4-His protein; assay: competitive ELISA, coated human 5T4, vs naptumomab-biotin
[6] = target: T1, human 5T4-His protein; assay: ELISA, coated 5T4-His
Experimental: (§1) To evaluate the binding activity of clones, the 286B4 chimeric antibody along with 286B4 humanized mAbs were subjected to ELISA test.
(§2) Briefly, microtiter plates were coated with human 5T4-His protein at 1 μg/ml in PBS, 100 μl/well at 4° C. overnight, then blocked with 150 μl/well of 1% BSA. 4-fold dilutions of tested antibodies starting from 20 nM were added to each well and incubated for 1 hour at 37° C. The plates were washed with PBS/Tween and then incubated with Goat Anti-Human IgG-HRP for 30 mins at 37° C. After washing, the plates were developed with TMB substrate and analyzed by spectrophotometer at OD 450 nm. As shown in FIG. 16 and Table 15, most of the humanized clones bound to human 5T4 with high potency.

[7] = target: T1, human 5T4-His protein; assay: SPR Biacore, Protein A capture; remark: listed apart in the source
Experimental: (§3) The binding of the 286B4 humanized antibodies to recombinant 5T4 protein (human 5T4-his tag) was tested with Biacore using a capture method. The mAbs were captured using Protein A chip. A serial dilution of human 5T4-his tag protein was injected over captured antibody for 3 mins at a flow rate of 30 μl/min. The antigen was allowed to dissociate for 280-800 s. All the experiments were carried out on a Biacore T200. Data analysis was carried out using the Biacore T200 evaluation software.

[8] = target: T1, human 5T4-His protein; assay: ELISA, coated human 5T4
Experimental: as §1, §2

[9] = target: T1, human 5T4-His protein; assay: competitive ELISA, coated human 5T4, vs 159D5-biotin
[10] = target: T1, human 5T4-His protein; assay: competitive ELISA, coated human 5T4, vs 267B5-biotin
[11] = target: T1, human 5T4-His protein; assay: as above; remark: listed apart in the source
[12] = target: T1, human 5T4-His protein; assay: competitive ELISA, coated human 5T4, vs 257F1-biotin
Experimental: Competitive ELISA was carried out to classify the test 5T4 mAbs based on the binding epitope to human 5T4.
Briefly, microtiter plates were coated with human 5T4 proteins at 0.5 μg/ml in PBS, 100 μl/well at 4° C. overnight, then blocked with 150 μl/well of 1% BSA. Serial dilutions of chimeric antibodies as well as 0.2 ug/ml biotin-conjugated reference mAb were added to each well and incubated for 1 hour at RT. The plates were washed with PBS/Tween and then incubate with streptavidin-HRP for 15 mins at RT. After washing, the plates were developed with TMB substrate and analyzed by spectrophotometer at OD 450 nm. According to the competition performance with reference mAbs, the 5T4 mAbs were divided into four bins (Bin A-D), as shown in FIG. 3-8 and Table 4.

[13] = target: T1, human 5T4-His protein; assay: as above; remark: listed apart in the source
[14] = target: T1, human 5T4-His protein; assay: as above; remark: listed apart in the source
[15] = target: T1, human 5T4-His protein; assay: ELISA, coated 5T4-His; remark: listed apart in the source
Experimental: To evaluate the binding activity of 393E9 humanized antibodies to human 5T4, the 393E9 chimeric antibody (393E9-C) along with 393E9 humanized mAbs were subjected to ELISA test.
as §2, with “of” for “of tested”, “12” for “16”, “9,” for “15,”, “antibodies” for “clones”, “activity.” for “potency.”

[16] = target: T3, human 5T4 expressed on cells; assay: flow cytometry, CHOK1-hu5T4 cells
[17] = target: T1, human 5T4-His protein; assay: SPR Biacore, Protein A capture; remark: listed apart in the source
Experimental: as §3, with “393E9” for “286B4”

[18] = target: T1, human 5T4-His protein; assay: competitive ELISA, coated human 5T4, vs naptumomab-biotin; remark: listed apart in the source

Binder	EC50 [1]	EC50 [2]	Kd [3]	koff [3]	kon [3]	other results
B1	0.19 nM	0.17 nM	0.413 nM	0.000222 s⁻¹	538000 M⁻¹ s⁻¹	Kd [4]: 0.839 nM and 0.537 nM; koff [4]: 0.000336 s⁻¹ and 0.00033 s⁻¹; kon [4]: 401000 M⁻¹ s⁻¹ and 615000 M⁻¹ s⁻¹; IC50 (read off the curve) [5]: ~4 nM
B2	–	–	–	–	–	EC50 [6]: 2.61 nM; Kd [7]: 1.93 nM; koff [7]: 0.000204 s⁻¹; kon [7]: 106000 M⁻¹ s⁻¹; EC50 (read off the curve) [8]: ~0.08 nM
B3	0.18 nM	0.21 nM	0.302 nM	0.000126 s⁻¹	418000 M⁻¹ s⁻¹	IC50 (read off the curve) [9]: ~9 nM
B4	0.31 nM	0.17 nM	1.62 nM	0.000255 s⁻¹	158000 M⁻¹ s⁻¹	IC50 (read off the curve) [10]: ~10 nM; IC50 (read off the curve) [11]: ~5 nM
B5	0.56 nM	0.11 nM	1.48 nM	0.000275 s⁻¹	186000 M⁻¹ s⁻¹	IC50 (read off the curve) [12]: ~10 nM; IC50 (read off the curve) [13]: ~7 nM; IC50 (read off the curve) [14]: ~8 nM
B6	0.37 nM	0.14 nM	0.0565 nM	0.000183 s⁻¹	3.24e+06 M⁻¹ s⁻¹	EC50 [15]: 0.27 nM and 0.13 nM and 0.23 nM; EC50 (read off the curve) [16]: 5 nM; Kd [17]: 0.463 nM; koff [17]: 0.000107 s⁻¹; kon [17]: 231000 M⁻¹ s⁻¹; IC50 (read off the curve) [18]: ~5 nM
